In the data set the target is FMRP isoform 1 (FMRP ISO1) (human (title of cited purification …, UniProt Q06787 1-632)). Kind of data set: fluorescence spectroscopy.

GGGUACGGGAGGGUAAGGCUGUGGGUCGCGUG (structured_RNA, 2-aminopurine replacing A5) [NR2B 2AP mRNA]: binding was put at a Kd of 370 nM.

Source of the values: publication PMC4643373.
